From paper PMC4010494

Target: chicken lysozyme (chicken) (UniProt P00698)
Test: far-Western, overlay or dot blot; proteins resolved by SDS-PAGE and transferred to PVDF; biotinylated CaM 1:2400, 30 min at room temperature in TBS-T with 1 mM CaCl2; VectaStain, chemi-luminescence

Substance: biotinylated calmodulin (CaM) (from UniProt P0DP23 1-149) (natural protein; other documents disagree on this pair)
- fold lower CaM binding signal than for CaMKII: 500 fold
